Reference: paper PMC2443653

Target: rPrP23-231 (full-length mature recombinant prion protein) (mouse, UniProt P04925 23-231)
Assay: fluorescence anisotropy

Sequence of rPrP23-231 (full-length mature recombinant prion protein) (P04925 23-231): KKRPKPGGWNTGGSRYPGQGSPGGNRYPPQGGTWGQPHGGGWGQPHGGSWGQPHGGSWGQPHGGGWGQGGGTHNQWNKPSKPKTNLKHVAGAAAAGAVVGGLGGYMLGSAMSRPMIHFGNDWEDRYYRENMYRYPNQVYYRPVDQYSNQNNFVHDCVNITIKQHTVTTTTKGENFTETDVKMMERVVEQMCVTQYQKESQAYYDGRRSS

B1: opRNA (structured_RNA)
RNA: AAACAUGGGUUCCCAUGU
- binding result: binds
